Changes are numbered by the printed parent chain. Names may count otherwise. Ends that are not written are not given here. * marks the point of attachment. Biotin = O=C1N[C@H]2[C@H](CS[C@H]2CCCCC(=O)*)N1

The record followed here is paper doi:10.1101/2024.03.25.586599 (bioRxiv, 2024).

Common to all, as to assay: SPR
On the technique in general: Surface plasmon resonance follows binding to a sensor surface in real time, without labels.

Experiment [1] has as its target T1, N-terminally biotinylated synthetic FLAG peptide, 4-residue variant (DYKD) (synthetic construct).
T1 chain: Biotin-DYKD

The target in experiment [2] is T2, N-terminally biotinylated synthetic FLAG peptide, six-residue truncated version (DYKDDD) (synthetic construct).
T2 chain: Biotin-DYKDDD

Experiment [3] has as its target T3, N-terminally biotinylated synthetic FLAG peptide, truncated, Asp5Glu (DYKDED) (synthetic construct, point mutant).
T3 chain: Biotin-DYKDED

Experiment [4] deals with T4, N-terminally biotinylated synthetic FLAG peptide, wildtype (DYKDDDDK) (synthetic construct, not fully specified (N-terminus)).
T4 chain: DYKDDDDK

In experiment [5] the target is T5, N-terminally biotinylated synthetic FLAG peptide, Asp5Glu (DYKDEDDK) (synthetic construct, point mutant, not fully specified (N-terminus)).
T5 chain: DYKDEDDK

The target in experiment [6] is T6, N-terminally biotinylated synthetic FLAG peptide, 5-residue variant (DYKDD) (synthetic construct).
T6 chain: Biotin-DYKDD

The target in experiment [7] is T7, N-terminally biotinylated synthetic FLAG peptide truncated by one C-terminal residue (DYKDDDD) (synthetic construct).
T7 chain: Biotin-DYKDDDD

The target of experiment [8] is T4, N-terminally biotinylated synthetic ….
For experiment [9], the target named is T5, N-terminally biotinylated synthetic ….
The target of experiment [10] is T1, N-terminally biotinylated synthetic ….
Experiment [11] concerns the target T2, N-terminally biotinylated synthetic ….
In experiment [12] the target is T3, N-terminally biotinylated synthetic ….
The target in experiment [13] is T7, N-terminally biotinylated synthetic ….
Experiment [14] concerns the target T6, N-terminally biotinylated synthetic ….

B1: anti-FLAG M2 IgG (wildtype, recombinant) (antibody, V domains shown)
VH: QVQLQQSAAELARPGASVKMSCKASGYSFTTYTIHWVKQRPGQGLEWIGYINPSSGYAAYNQNFKDETTLTADPSSSTAYMELNSLTSEDSAVYYCAREKFYGYDYWGQGATLTVSS
VL: DVLMTQIPLSLPVSLGDQASISCRSSQSIVHRNGNTYLEWYLLKPGQSPKLLIYKVSNRFSGVPDRFSGSGSGTDFTLKISRVEAEDLGVYYCFQGSHVPYTFGGGTKLEIR
In the case of B1, the “KD, first site (two-site binding model)” value in experiment [1] was found to be 52.9 ± 22.1 nM; in [2], 9.72 ± 2.6 nM; in experiment [3], 10.2 ± 0.48 nM; in [4], 2.95 ± 0.31 nM; in experiment [5], 2.23 ± 0.25 nM; in experiment [6] it was 154 ± 100 nM.

B2: anti-FLAG M2 IgG, heavy chain K100R (antibody, V domains shown)
VH: B1 VH with K100R
VL: B1 VL
Regarding B2, the “fold drop in affinity against the wildtype IgG” value in [1], in [2], in experiment [3], in [7], in experiment [4] and in experiment [5] was roughly 20 fold throughout. Besides, the “fold drop in affinity against the wildtype IgG” value in [6] was roughly 20 fold.

B3: anti-FLAG M2 Fab (wildtype, recombinant) (Fab, V domains shown)
VH: B1 VH
VL: B1 VL
The Kd is the constant that tells how readily two partners part at equilibrium. Low readings indicate higher affinity, high ones lower affinity. Regarding B3, the Kd was determined as 1910 ± 240 nM in [8] and 1780 ± 130 nM in experiment [9].

B4: anti-FLAG M2 Fab, heavy chain K100R (Fab, V domains shown)
VH: B1 VH with K100R
VL: B1 VL
Consider B4, for which the “fold drop in affinity against the wildtype Fab” value in experiment [10], in [11], in [12], in experiment [13], in experiment [8] and in experiment [9] was roughly 20 fold in each case. Moreover, the “fold drop in affinity against the wildtype Fab” value in experiment [14] is roughly 20 fold.
